According to US20180112193A1, “CSF1 THERAPEUTICS” (University Court Of The University Of Edinburgh, priority 2013, published 2018):

Tested on: male C57BI6 mice
Experiment: 2/3 partial hepatectomy in mice
Format: in vivo, mouse
Description: Forty-eight male C57BI6 mice aged 10-12 weeks underwent either 2/3 partial hepatectomy, paracetamol intoxication or chronic liver injury plus 2/3 partial hepatectomy. 2/3 partial hepatectomy was performed by ligating the left lobe and left and right median lobes. Paracetamol intoxication was performed by intraperitoneal administration of 350 mg/kg paracetamol dissolved in phosphate buffered saline (PBS). Chronic liver injury plus 2/3 partial hepatectomy was performed by eight weeks intraperitoneal carbon tetrachloride administration 1 mcl/g twice weekly dissolved in olive oil followed by ⅔ partial hepatectomy as described above. […] Control mice (n=8 per injury model) received subcutaneous PBS of appropriate volume. […]
Following a midline laparotomy the liver was excised and weighed. Liver weight to body weight ratio was calculated and expressed as a percentage. Livers were fixed in 4% formalin overnight then transferred to 70% ethanol. Livers were then embedded in paraffin blocks and 4 μm sections cut. Immunohistochemistry for Ki67 (a marker of cellular proliferation expressed throughout the cell cycle) was performed following heat mediated antigen retrieval in Tris/EDTA solution at pH9. Hepatocyte proliferation was quantified by counting ki67 positive hepatocytes in 20 high powered fields (400×) per animal and the mean calculated. […]

[1] = administered immediately following 2/3 partial hepatectomy, vs control
[2] = day 2 following partial hepatectomy, vs controls

B1: Fc-CSF-1: active fragment of porcine CSF-1 (SEQ ID NO:1) linked to the hinge-CH3 region of porcine IgG1a (SEQ ID NO:2) (protein, listed as Sus scrofa)
chain: SENCSHMIGDGHLKVLQQLIDSQMETSCQIAFEFVDQEQLTDPVCYLKKAFLQVQDILDETMRFRDNTPNANVIVQLQELSLRLNSCFTKDYEEQDKACVRTFYETPLQLLEKIKNVFNETKNLLKKDWNIFSKNCNNSFAKCSSQHERQPEGRGTKTKPPCPICPGCEVAGPSVFIFPPKPKDTLMISQTPEVTCVVVDVSKEHAEVQFSWYVDGVEVHTAETRPKEEQFNSTYRVVSVLPIQHQDWLKGKEFKCKVNNVDLPAPITRTISKAIGQSREPQVYTLPPPAEELSRSKVTVTCLVIGFYPPDIHVEWKSNGQPEPEGNYRTTPPQQDVDGTFFLYSKLAVDKARWDHGETFECAVMHEALHNHYTQKSISKTQGK
hepatocyte proliferation [1]: increasing
liver weight to body weight ratio [1]: significantly increasing
gene expression of oncostatin M (OSM) [2]: significantly enhanced
gene expression of pro-regenerative cytokine 116 [2]: significantly enhanced
urokinase receptor (UR) expression (following partial hepatectomy, vs controls): significantly elevated
